Results reported in article PMC9747694.

Biological target: SARS-CoV-2 XBB.1 S2P spike trimer (SARS-CoV-2)
Test: SPR; spike captured through its C-terminal His-tag on a CM5 chip with anti-His antibodies (His Capture Kit); serially diluted human ACE2-Fc flowed over; HBS-EP+ buffer; 25°C; Biacore T200, single-cycle mode; 1:1 binding model

Sequence of human ACE2-Fc protein (from pcDNA3-sACE2-WT(732)-IgG1) (Q9BYF1 18-732): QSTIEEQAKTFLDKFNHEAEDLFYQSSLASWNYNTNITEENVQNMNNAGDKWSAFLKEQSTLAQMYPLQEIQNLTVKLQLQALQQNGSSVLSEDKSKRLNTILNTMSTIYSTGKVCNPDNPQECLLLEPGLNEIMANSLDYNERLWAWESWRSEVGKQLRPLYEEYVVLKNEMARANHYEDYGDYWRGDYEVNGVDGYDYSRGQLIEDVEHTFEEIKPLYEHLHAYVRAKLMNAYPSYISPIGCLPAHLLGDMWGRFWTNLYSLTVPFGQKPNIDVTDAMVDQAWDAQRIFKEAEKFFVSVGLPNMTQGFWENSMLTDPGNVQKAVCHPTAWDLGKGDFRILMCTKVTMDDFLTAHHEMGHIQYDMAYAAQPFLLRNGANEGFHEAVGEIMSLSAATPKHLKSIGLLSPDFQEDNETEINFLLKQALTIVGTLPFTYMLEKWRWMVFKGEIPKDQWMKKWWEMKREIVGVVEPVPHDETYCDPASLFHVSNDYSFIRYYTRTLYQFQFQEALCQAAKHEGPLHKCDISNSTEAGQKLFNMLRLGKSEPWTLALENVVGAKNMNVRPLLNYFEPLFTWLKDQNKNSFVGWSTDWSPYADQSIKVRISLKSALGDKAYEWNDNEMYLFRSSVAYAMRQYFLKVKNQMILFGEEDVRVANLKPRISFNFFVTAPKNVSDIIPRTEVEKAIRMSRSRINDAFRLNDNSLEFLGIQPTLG

Substance: human ACE2-Fc protein (from pcDNA3-sACE2-WT(732)-IgG1) (from UniProt Q9BYF1 18-732) (Fc fusion)
- Kd: 2.06 nM
